Substitutions are numbered along the chain they refer to.
Assays:
[1] = target: T1, Zif268 wildtype (three zinc fingers, phage displayed) (Mus musculus, UniProt P08046 P08046:333-421); experiment: ELONA; apparent Kd, phage ELISA, PBS/Zn, RT
[2] = target: T1, Zif268 wildtype (three zinc fingers, …); experiment: ELONA; negative control; apparent Kd; microarray signal 0.052
[3] = target: T1, Zif268 wildtype (three zinc fingers, …); experiment: apparent Kd interpolated from microarray signal 0.320
[4] = target: T1, Zif268 wildtype (three zinc fingers, …); experiment: apparent Kd interpolated from microarray signal 0.150
[5] = target: T1, Zif268 wildtype (three zinc fingers, …); experiment: apparent Kd interpolated from microarray signal 0.085
[6] = target: T1, Zif268 wildtype (three zinc fingers, …); experiment: apparent Kd interpolated from microarray signal 0.372

B1: Zif268 site TAG (dsDNA)
DNA 1: TATATAGCGTAGGCGTATATATCAAGTCAATCGGTCC
DNA 2: GGACCGATTGACTTGATATATACGCCTACGCTATATA
modifications: [none]
[1]
  Kd: 6.7 nM

B2: Zif268 site AGG (dsDNA)
DNA 1: B1 DNA 1 with T10A, A11G
DNA 2: B1 DNA 2 with T27C, A28T
modifications: [none]
[1]
  Kd: 54 nM

B3: Zif268 site AAA (dsDNA)
DNA 1: B1 DNA 1 with T10A, G12A
DNA 2: B1 DNA 2 with C26T, A28T
modifications: [none]
[2]
  Kd: > 5000 nM

B4: Zif268 site CAG (dsDNA)
DNA 1: B1 DNA 1 with T10C
DNA 2: B1 DNA 2 with A28G
modifications: [none]
[1]
  Kd: 380 nM

B5: Zif268 site CGG (dsDNA)
DNA 1: B1 DNA 1 with T10C, A11G
DNA 2: B1 DNA 2 with T27C, A28G
modifications: [none]
[3]
  Kd: 35 nM

B6: Zif268 site GAG (dsDNA)
DNA 1: B1 DNA 1 with T10G
DNA 2: B1 DNA 2 with A28C
modifications: [none]
[4]
  Kd: 75 nM

B7: Zif268 site TCG (dsDNA)
DNA 1: B1 DNA 1 with A11C
DNA 2: B1 DNA 2 with T27G
modifications: [none]
[5]
  Kd: 180 nM

B8: Zif268 site GGG (dsDNA)
DNA 1: B1 DNA 1 with T10G, A11G
DNA 2: B1 DNA 2 with T27C, A28C
modifications: [none]
[6]
  Kd: 28 nM

B9: Zif268 site TTG (dsDNA)
DNA 1: B1 DNA 1 with A11T
DNA 2: B1 DNA 2 with T27A
modifications: [none]
[1]
  Kd: 71 nM
